Assay results published in US20180021430A1 (UNIVERSITAETSKLINIKUM FREIBURG, published 2018).

Experiments:
[1] = biological target: T1, recombinant Mac-1 I-domain, human Mac-1 (alpha M) amino residues R115 to S340, soluble His-tag fusion protein (human, UniProt P11215 131-356); experiment: solid phase binding assay, one-site binding hyperbola; I-domain on immobilized CD40L, BSA wells subtracted
T1 construct: range 115-340; ~28 kDa; also called alphaM I-domain; not shown: C-terminal His-tag from vector pET20b
T1 sequence (P11215 131-356): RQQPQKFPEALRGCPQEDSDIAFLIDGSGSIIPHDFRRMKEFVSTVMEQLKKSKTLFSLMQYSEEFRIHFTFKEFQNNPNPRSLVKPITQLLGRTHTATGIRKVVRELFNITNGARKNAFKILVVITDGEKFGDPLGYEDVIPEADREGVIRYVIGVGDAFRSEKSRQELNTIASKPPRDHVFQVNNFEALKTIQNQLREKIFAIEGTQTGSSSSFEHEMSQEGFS
Procedure: (§1) Solid phase binding assay. […] A mixture of equal molarities of all peptides served as the positive control in this assay.
(§2) The recombinant Mac-1 I-domain was immobilized in 96-well plates (Nunc) in PBS at 4° C. overnight. […] Binding was quantified by addition of TMB-substrate (Pierce), colorimetric reaction at 450 nm. […] Binding of the recombinant Mac-1 I-domain was quantified by addition of anti-His-Biotin monoclonal antibody (Qiagen), HRP-coupled streptavidin (Pierce) and colorimetric reaction at 450 nm. […] Kd was estimated using a one-site binding hyperbola nonlinear regression model with the Software Prism (Graphpad). […] A mixture of equal molarities of all peptides served as positive control. Absorbance on BSA-coated wells served as negative control and was subtracted.

[2] = biological target: T2, recombinant CD40L, TNF homologous region of human CD40L (E108 to L261), produced as c-myc- and His-tag fusion … (human); experiment: solid phase competition assay: M7 against binding of CD40L to the immobilized I-domain
T2 construct: also called sCD40L; His-tag-CD40L fusion protein
T2 chain: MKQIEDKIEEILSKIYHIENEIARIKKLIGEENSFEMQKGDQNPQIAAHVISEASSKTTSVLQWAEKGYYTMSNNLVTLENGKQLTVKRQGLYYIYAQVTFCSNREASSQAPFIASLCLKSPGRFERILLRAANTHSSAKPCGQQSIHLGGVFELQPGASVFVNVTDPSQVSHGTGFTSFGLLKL
Procedure: as §1, §2

B1: CD40L without a His-tag (Provitro) (ligand)
chain: MQKGDQNPQIAAHVISEASSKTTSVLQWAEKGYYTMSNNLVTLENGKQLTVKRQGLYYIYAQVTFCSNREASSQAPFIASLCLKSPGRFERILLRAANTHSSAKPCGQQSIHLGGVFELQPGASVFVNVTDPSQVSHGTGFTSFGLLKL
notes: Bought protein; also called CD40L (Provitro); immobilized CD40L
B1 was tested, and the Kd [1] was ~66 nM.

B2: peptide M7 (EQLKKSKTL) (peptide)
peptide: EQLKKSKTL
notes: linear fragment of the Mac-1 I-domain, E162-L170
Work on B2 yielded an IC50 [2] of ~4000 nM.
